The values that follow come from the supplement of paper PMC9170038.

The subject of the data set is MS2 coat protein. The data set is described as follows: apparent KD of MS2 coat protein; designed switch direction (-1 OFF switch, 1 ON switch): -1; higher = weaker reporter binding. Summed up: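 An oligonucleotide input, 200 uM small-molecule ligand, or no input was present during titration of SNAP-549-labelled MS2 coat protein, which was doubled from 0.7 or 1.5 nM to 3 µM. Designed RNA switches had been transcribed on Illumina chips by stalled E. coli RNA polymerase. Apparent KD per design is the median over clusters of curves fitted to normalised cluster fluorescence.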

Where [1] appears, read: Eterna round: R95, input ligand: FMN 200 uM.
Setting [2] is: Eterna round: R95, input ligand: microRNA oligo, concentration not stated.
[3] abbreviates: Eterna round: R95, input ligand: none.
The mark [4] stands for this setting: input ligand: microRNA oligo, concentration not stated.

Turning to “GAAAAUCGUAAGGAUAUCAGCGAAGAAGUACACUGAGAAGGUAUGACAUGAGGAUCACCCAUGUAGCCCGCUUA [Eternabot (L1) Solution 38] (Eterna round: R97, puzzle: Exclusion 6)”, the “apparent KD of MS2 coat protein” value runs as follows: (input ligand: FMN 200 uM) 0.018 µM; (input ligand: none) 0.0132 µM.
On to “GAAAAUUGAGGAUAUCCAAAAGGCCACAUGAGGAUCACCCAUGUGUAUCCUCGGCCCAAAGGAGAAGGCAAGAUAA [EX5 A.23] (Eterna round: R97, puzzle: Exclusion 5)”, for which the “apparent KD of MS2 coat protein” value is 0.974 µM (input ligand: FMN 200 uM) and 5.08 µM (input ligand: none).
Taken in the same sequence, the figures for “GAACCAUGAGGAUAUUCUGAUCCUAACAUGAGGAUCACCCAUGUGAGUACAAAAGUACUCGAAGAAGGCAUGGUUC [Omei Ex5 B2] (Eterna round: R97, puzzle: Exclusion 5)” were 0.819 µM and 0.428 µM.
In the case of “GAACCUUGAGGAUAUACAUAACAACAAAGCCUCACGUGCCAACAUGAGGAUCACCCAUGUAGAAGGCAAGCCAA [Mod R3 Insanara 9 - Jieux - Exclusion 2] (Eterna round: R97, puzzle: Exclusion 2)”, the “apparent KD of MS2 coat protein” value reads like this: (input ligand: FMN 200 uM) 0.019 µM; (input ligand: none) 0.0162 µM.
For “GAAUAGCGAGGAUAUGCAAUGAAGGUAGUACGAUAUGGCUGACAUGAGGAUCACCCAUGUAGAAGGCGCUGAUC [EX2 #11] (Eterna round: R97, puzzle: Exclusion 2)” the same measures were 0.116 µM and 0.0658 µM.
For “GAAUAGGCAGGAUAUACAUGAGGAUCACCCAUGUGCAAGCGAAAGGUACGUGAACAACGUAGAAGGGCCUAAAC [ChP 13.04.2015 #10] (puzzle: Exclusion 3)”, the “apparent KD of MS2 coat protein” value is, setting by setting: under setting [1], 0.0243 µM; under setting [2], 0.0129 µM; under setting [3], 0.0138 µM.
Take “GACAGGGCAGGAUAUCGAGAUCCUCACAUGAGGAUCACCCAUGUUCAGUCGAAAGACUGACGAGAAGGGCCGUGUC [Omei Ex5 E3] (Eterna round: R97, puzzle: Exclusion 5)”: the “apparent KD of MS2 coat protein” value is, setting by setting: (input ligand: FMN 200 uM) 0.0368 µM; (input ligand: none) 0.0332 µM.
“GACCCUAGGGUCAGACGCACAAGCUUUUUGCUCGUUUUAACAUGAGGAUCACCCAUGUCUAGUGGAUCUGAUCGGGC [Ongege] (puzzle: Sensor v3, turn-off variant 2)”: the “apparent KD of MS2 coat protein” value is 0.0263 µM under setting [1], 0.151 µM under setting [2] and 0.0295 µM under setting [3].
For “GACUGAACGUGGUCUGGUUACAUGAGGAUCACCCAUGUAGGUCUAAGAACAUGUCUUUUGUACGCUCGUCUUAUAUA [JR_SV3TOV1_Sub066] (puzzle: Sensor v3, turn-off variant 1)” the same measures were 0.0167 µM, 0.0381 µM and 0.015 µM.
For the sequence “GACUGAGCAGGAUAUACAUGAGGAUCACCCAUGUUGGUUCAGCGACGAUAGUCGCAAUGUAGAAGGGCUCAGUC [E3/9-D2] (Eterna round: R97, puzzle: Exclusion 3)”, the “apparent KD of MS2 coat protein” value amounted to 0.273 µM (input ligand: FMN 200 uM) and 0.203 µM (input ligand: none).
On to “GACUGGACAGGAUAUGUUCUUGAGCACUUGAGGAUCACCCAAGUCAUCAAGAACUCAGGCACAGAAGGGUUUAUGA [salish99_ex5_r4_008] (Eterna round: R97, puzzle: Exclusion 5)”, for which the “apparent KD of MS2 coat protein” value runs as follows: (input ligand: FMN 200 uM) 0.0296 µM; (input ligand: none) 0.0135 µM.
As for “GACUUCUCUGAGGAUAUUGCAUCAUACGAUCUAUAAGAAGGCAGAACAUGAGGAUCACCCAUGUGGGUUUCUAG [Bingo-Bango-28] (Eterna round: R97, puzzle: Exclusion 6)”, the “apparent KD of MS2 coat protein” value reads like this: (input ligand: FMN 200 uM) 0.0702 µM; (input ligand: none) 0.0383 µM.
For “GAGAAGGUAGGAUAUACGAAUAAAUAGGGUAGUAAUAAGACACAUGAGGAUCACCCAUGUAGAAGGACCAAGAG [Mat - Exclusion 2 - Mod of my Tesla design - D38] (puzzle: Exclusion 2)”, the “apparent KD of MS2 coat protein” value was found to be 0.037 µM under setting [1], 0.0193 µM under setting [2] and 0.0211 µM under setting [3].
“GAGACAUGAGGAUCACCCAUGUGUGGUCCAAGGCAUGUCGUCGAGGAUAUGCAGGACGUCGUCUUGCAGAAGGCGACUAAAUAC [Teatarti] (Eterna round: R96, puzzle: Exclusion NG 3)”: the “apparent KD of MS2 coat protein” value (input ligand: FMN 200 uM) came to 0.0178 µM, the “apparent KD of MS2 coat protein” value under setting [4] came to 0.0195 µM and the “apparent KD of MS2 coat protein” value (input ligand: none) was 0.105 µM.
For “GAGAUGCGGAUAGGAUAUGGAAGAAAAGAAGGAUUAGAAGGGUUGGUUAGAAUACAUGAGGAUCACCCAUGUGAAUCAUGAGAA [AK ExNG1-2.3] (Eterna round: R96, puzzle: Exclusion NG 1)” the same measures were 0.0992 µM, 0.0811 µM and 0.128 µM.
On to “GAGAUGUGAGGAUAUCUAGACCGCGGAAGAGCCGCAGUCCGAGAGAAGGCACAUGAGGAUCACCCAUGUGAUGA [Teorgeor] (puzzle: Exclusion 4)”, for which, under setting [2], the “apparent KD of MS2 coat protein” value stood at 0.036 µM.
As to “GAGCAGCGAGGAUAUACAGACGGGUCCAGUACGUGUCUUGGACUUGAGGAUCACCCAAGUAGAAGGCGCCACAG [salish99_ex2_r4_605] (Eterna round: R97, puzzle: Exclusion 2)”, the “apparent KD of MS2 coat protein” value runs as follows: (input ligand: FMN 200 uM) 0.0426 µM; (input ligand: none) 0.0258 µM.
On to “GAGGAACAUGAGGAUCACCCAUGUGAGGAUAUGCAUAGUGAGCUAGUAGACGUUUAUUGCAGAAGGUACACUGA [JR_Exclu1_Sub080] (puzzle: Exclusion 1)”, for which the “apparent KD of MS2 coat protein” value under setting [2] came to 0.0253 µM.
On to “GAGGAGCAAGGAUAUACGAGGAUAGGGAAGGUUGGAGAGUGACAUGAGGAUCACCCAUGUAGAAGGUGCAAGGG [JR_Exclu2_Sub095] (puzzle: Exclusion 2)”, for which, under setting [2], the “apparent KD of MS2 coat protein” value was found to be 0.107 µM.
As to “GAGUACUGAGGAUAUACAUGAGGAUCACCCAUGUGUUCCAACUAGGAAUCUAGAAUAUGUAGAAGGCAGUGCUG [salish99_ex3_r4_702] (Eterna round: R97, puzzle: Exclusion 3)”, the “apparent KD of MS2 coat protein” value stood at 0.0713 µM (input ligand: FMN 200 uM) and 0.123 µM (input ligand: none).
As for “GAGUAGUAAGGAUAUAGUAGGAGGGAGAAGUGAGGAGAGAACUAGAAGGUACAUGAGGAUCACCCAUGUUGAGA [JR_Exclu4_Sub084] (puzzle: Exclusion 4)”, the “apparent KD of MS2 coat protein” value came to 0.0243 µM under setting [1], 0.0192 µM under setting [2] and 0.0195 µM under setting [3].
As to “GAGUCUCGAAAGGAUAUUUAGGUGUAUGCAGGUAGAGAAGGUUCGACAUGAGGAUCACCCAUGUAAUGGUUUCC [Eternabot (L2) Solution 25] (Eterna round: R97, puzzle: Exclusion 6)”, the “apparent KD of MS2 coat protein” value reads like this: (input ligand: FMN 200 uM) 0.157 µM; (input ligand: none) 0.084 µM.
Taken in the same sequence, the figures for “GAGUGCUAAGGAUAUACAUGAGGAUCACCCAUGUGCUUCAGCUAGGAGACUAGCAUUGGUAGAAGGUAGUACUC [Mod of lroppy 2 - Jieux - Exclusion 3] (Eterna round: R97, puzzle: Exclusion 3)” were 0.0603 µM and 0.0147 µM.
For “GAUAGAGAGCAGGAUAUCUUGGAUAAGUGUUGUAGAGAAGGGCUCACAUGAGGAUCACCCAUGUGGUCCUAGAU [JL Dibiri mod 09] (puzzle: Exclusion 6)”, the “apparent KD of MS2 coat protein” value reads like this: under setting [1], 0.0375 µM; under setting [2], 0.0132 µM; under setting [3], 0.0143 µM.
